This is an account of results in patent US20250333441A1, “POLYPEPTIDE INHIBITORS AND USES THEREOF” (Neuracle Science Co., Ltd., priority 2021, published 2025).

Where a SMILES comes first, the peptide text is derived from it. Where no end group is shown, it is not given here. [ ]: non-standard residue; d: D form.

Assay [1] deals with complex of His-TEV LRRC4B and recombinant FAM19A5 protein (Homo sapiens, UniProt Q7Z5A7). Nature of the assay: Competitive inhibition assay (IC50), plate coated with His-TEV LRRC4B. The class given is binding. The note with it: FIG. 22C; d-form peptides; methods as for Table 15. The protocol: To further assess the inhibitory effect of the FB-21 mutants, the ability of additional FB-21 mutants described in Example 9 were tested for their ability to inhibit the interaction between FAM19A5 protein and LRRC4B protein. Briefly, plates were coated with 100 nM of His-TEV LRRC4B and then 1 ng/mL of rFAM19A5 was incubated at 37° C. in the presence of increasing concentrations of the FB-21 peptide fragments (0.3, 1, 3, 10, 30, 100, 300, 1000, 3000 and 10000 nM). The LRRC4B-bound FAM19A5 levels were measured using HRP-conjugated 1-65 SS01 antibody. As shown in FIG. 22B (see Table 15 for IC50), most (if not all) of the FB-21 mutants had improved ability in inhibiting the interaction between LRRC4B and recombinant FAM19A5 protein.
complex of His-TEV LRRC4B and recombinant FAM19A5 protein, sequence (Q7Z5A7 44-132, one chain of several): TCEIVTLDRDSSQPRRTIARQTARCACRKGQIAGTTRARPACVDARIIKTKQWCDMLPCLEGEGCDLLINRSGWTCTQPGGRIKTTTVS
Next, to assess whether other properties of the polypeptides described herein can be improved (e.g., solubility, prevention of degradation from protease and peptidase, and in vivo administration), the following additional FB-21 peptide mutants were constructed and tested for their ability to inhibit the interaction between FAM19A5 protein and LRRC4B: (1) d-form FB-21 peptide (“dFB-21”), (2) d-form FB-21 peptide with juxta-membrane (JM) sequence (“dFB-JM-31”), (3) d-form FB-21 peptide with BBB penetrating sequence at each end of the sequence (“dFB-BBB-39”), and (4) d-form FB-21 mutant peptide with DY replacement and additional JM sequence (“dFB-DY-JM31”). […]

The subject of assay [2] is mouse hippocampal neurons treated with toxic amyloid beta oligomer. Nature of the assay: Amyloid beta-induced synapse loss in primary hippocampal neurons. The following applies: 6.6 nM; co-treated with toxic amyloid beta oligomer; 21 DIV. The class given is cell-based. The protocol:
Alzheimer's disease (AD) is tightly associated with the dysmetabolism of amyloid-R (A3). To begin assessing whether the polypeptides provided herein (i.e., comprising the FAM19A5 binding domain of LRRC4 protein family members) could have any therapeutic effects on AD, the effect of various FB-21 peptide fragments described herein on the deformation of synapse induced by toxic A3 oligomer and following structural recovery was assessed. Specifically, the following FB-21 peptide fragments were tested: FB-21, FB-JM-31 and FB-BBB-39 (see Example 10).
Aβ42 (#20276) peptide was purchased from AnaSpec (Fremont, USA). […]
Hippocampal neurons were treated with 6.6 nM FB-21, 6.6 nM of FB-13-JM and 6.6 nM of FB-13-BBBX2 at 14, 17 and 20 DIV to determine the level of synaptogenesis at 21 DIV by immunostaining SYP, a presynapse marker protein and PSD95, a postsynapse marker protein. To quantify fluorescence intensity for SYN and PSD95 and number of colocalized voxels between SYN and PSD95 signals, z-stack confocal images of 3 m in depth were converted to 3D images using IMARIS software (IMARIS9.0, Bitplane AG, Zurich, Switzerland). The “Surface tool” of the IMARIS software was used to exclude all the signals detected in neuronal cell bodies, and number of colocalized voxels between SYN and PSD95 signals in neurites were calculated using the “Coloc tool”. […]

Assay [3] has as its target complex of human LRRC4B protein (hFc-fused) and recombinant FAM19A5 protein (Homo sapiens, UniProt Q7Z5A7). Put plainly: Competitive inhibition assay (IC50), plate coated with LRRC4B(453-576, TT/TT)-hFc. The assay is classed as binding. The note with it: hFc-fused hLRRC4B; from IC50 of Table 14. The protocol:
The in silico analysis provided in Example 9 highlighted that certain T12 and L13 double mutants might be important in improving the binding affinity of the polypeptides of the present disclosure to the FAM19A5 protein. Therefore, the ability of both the wild-type FB-21 peptide (which is the same as the FB-20 peptide described herein except that the FB-21 peptide additionally contains an alanine at the C-terminus) and several FB-21 mutants were tested for their inhibitor effect on hFc-fused hLRRC4B and FAM19A5 complex formation. Briefly, plate was coated with 100 nM of LRRC4B(453-576, TT/TT)-hFc and then 1 ng/mL of rFAM19A5 was incubated at 37° C. in the presence of increasing concentrations of the different FB-21 peptide fragments (0.03, 0.1, 0.3, 1, 3, 10, 30, 100, 300 and 1000 nM). The LRRC4B-bound FAM19A5 levels were measured using HRP-conjugated 1-65 antibody.

The target in the next assay is FAM19A5 protein (Homo sapiens, UniProt Q7Z5A7). Put plainly: competitive inhibition ELISA; competitor: coated LRRC4B(453-576, TT/TT)-hFc. A general note: In an ELISA, binding on a coated surface is turned into a signal by an enzyme label.

complex of human LRRC4B protein (hFc-fused) and recombinant FAM19A5 protein, sequence (Q7Z5A7 44-132, one chain of several): as above

Consider “nYTYFTTVTVEDYETQPGEEALDEVMKTTKa ([dN]YTYFTTVTVEDYETQPGEEALDEVMKTTK[dA]; also: terminal modifications) [dFB-DY-JM31]”, for which the “more effective in inhibiting complex formation compared to the wild-type FB-21” value in assay [1] was 4 fold.

As to “nYTYFTTVTVETLETQPGEEALDEVMKTTKa ([dN]YTYFTTVTVETLETQPGEEALDEVMKTTK[dA]; also: terminal modifications) [dFB-JM-31]”, the “colocalized voxels for PSD95 and synaptophysin” value in assay [2] is “significant increase”.

`CC(C)[C@H](NC(=O)[C@@H](NC(=O)[C@@H](NC(=O)[C@@H](NC(=O)[C@@H](NC(=O)[C@H](Cc1ccccc1)NC(=O)[C@H](Cc1ccc(O)cc1)NC(=O)[C@@H](NC(=O)[C@H](Cc1ccc(O)cc1)NC(=O)CN)[C@@H](C)O)[C@@H](C)O)[C@@H](C)O)C(C)C)[C@@H](C)O)C(=O)N[C@@H](CCC(=O)O)C(=O)N[C@@H](Cc1c[nH]c2ccccc12)C(=O)N[C@@H](Cc1ccc(O)cc1)C(=O)N[C@@H](CCC(=O)O)C(=O)N[C@H](C(=O)N[C@@H](CCC(N)=O)C(=O)N1CCC[C@H]1C(=O)NCC(=O)N[C@@H](CCC(=O)O)C(=O)N[C@@H](CCC(=O)O)C(=O)N[C@@H](C)C(=O)O)[C@@H](C)O` [FB-21 (W12Y13)] (H-GYTYFTTVTVEWYETQPGEEA-OH; N-terminus and C-terminus assumed): in assay [3], the “increase in ability to dissociate the LRRC4B-FAM19A5 complex compared with wild-type FB-21” value was found to be 2.9 fold. As for GYTYFTTVTVEWYETQPGEEA [FB-21 (W12Y13)], the fold increase in ability to dissociate the LRRC4B-FAM19A5 complex, against wild-type FB-21 in the assay with FAM19A5 protein worked out at 2.9 fold.
